The target of this test is rat brain farnesyl:protein transferase (rat) (UniProt Q04631). As to the kind of experiment: cell-based or functional assay.

These results are taken from patent publication US6936431.

“CVIM with lysine at the A2 position (CVKM) (peptide)”: the fold decline in affinity was above 50 fold and the fold decrease in affinity against CVIM, estimated by the concentration required for 50% inhibition is above 30 fold. “CVIM with glycine at the A2 position (CVGM) (peptide)”: the 50% inhibition came out at 8 µM. On the same count and under the same terms, the figure for “CVIM with glycine at the X position (CVIG) (peptide)” is above 40 µM; for “CVIM with glutamic acid at the X position (CVIE) (peptide)” it is above 40 µM. Regarding “CVIM with lysine at the X position (CVIK) (peptide)”, the 50% inhibition is above 40 µM and the fold decrease in affinity against CVIM, estimated by the concentration required for 50% inhibition was above 30 fold. The substance “CVIM with glutamic acid at the A2 position (CVEM) (peptide)” returned a fold decline in affinity above 50 fold. As for “CAIL (COOH-terminal tetrapeptide of γ-Subunit of G protein)”, the Concentration For 50% Inhibition amounted to 100 µM.
